Laboratory results from US20210230266A1 (SINGAPORE HEALTH SERVICES PTE, published 2021).
Changes are numbered by the printed parent chain.

T1: Human IL-11 (human, UniProt P20809 22-199)
T1 construct: Recombinant human IL-11 (GenScript Cat. No. Z03108-1) or IL-11 secreted by human cells; the mature form is said to have 178 residues; also called recombinant human IL-11; endogenously produced IL-11
T1 sequence: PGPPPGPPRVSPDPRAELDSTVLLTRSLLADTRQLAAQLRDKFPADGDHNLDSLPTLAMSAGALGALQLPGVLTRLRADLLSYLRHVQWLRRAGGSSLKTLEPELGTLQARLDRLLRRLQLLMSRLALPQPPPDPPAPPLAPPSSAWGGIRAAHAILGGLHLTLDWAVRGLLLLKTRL

T2: Mouse IL-11 (mouse, UniProt P47873 22-199, limits assumed)
T2 construct: also called murine IL-11; recombinant murine IL-11
T2 sequence (looked up): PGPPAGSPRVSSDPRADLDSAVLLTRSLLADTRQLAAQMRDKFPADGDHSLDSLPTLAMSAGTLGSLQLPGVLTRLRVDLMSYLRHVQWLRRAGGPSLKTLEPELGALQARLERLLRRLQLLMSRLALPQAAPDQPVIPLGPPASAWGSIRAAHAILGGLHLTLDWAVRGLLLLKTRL

B1: YU100-A10 (antibody)
chain: EVQLVESGGGVVQPGRSLRLSCAASGFTFSSYGMHWVRQAPGKGLEWVAVISYDGSNKYYADSVKGRFTISRDNSKNTLYLQMNSLRAEDTAVYYCAKIGATDPLDYWGQGTLVTVSSGSASAPKLEEGEFSEARVLPVLTQPASVSGSPGQSITISCTGTSSDVGAYNYVSWYQQHPGKAPELMIYDVSNRPSGVSNRFSGSKSGNTASLTISGLQPEDEADYYCSSFTTSIAWVFGGGTKLTVL
B2: YU112-C03 (antibody)
chain: QVQLVESGGGVVQPGRSLRLSCAASGFTFSSYGMHWVRQAPGKGLEWVAVISYDGSNKYYADSVKGRFTISRDNSKNTLYLQMNSLRAEDTAVYYCAKGGKSYYGFDYWGQGTLVTVSSGSASAPKLEEGEFSEARVDSVMTQSPSSLSASVGDRVTITCRASQAINSYLNWYQQKPGKAPKLLIYAASSLQSGVPSRFSGSGSGTDFTLTISGLQPEDFATYYCQQSYSTPSWTFGQGTKVEIK
B3: YU112-A07 (antibody)
chain: QVQLVESGGGVVQPGRSLRLSCAASGFTFSSYGMHWVRQAPGKGLEWVAVISYDGSNKYYTDSVKGRFTISRDNSKNTLYLQMNSLRAEDTAVYYCAKIGATDPLDYWGQGTLVTVSSGSASAPKLEEGEFSEARVQSALTQPRSVSGSPGQSVTISCTGTISDVGGYNYVSWYQQHPGKAPKLMIYDVTKRPSGVPDRFSGSKSGNTASLTISGLQAEDEAGYYCSSYAGSYTWVFGGGTELTVL
B4: YU100-A11 (antibody)
chain: B3 chain with Q1E, V5Q, E6Q, T61A, I162S, T190S, G223D, S227C, E242K
B5: YU112-G06 (antibody)
chain: B3 chain with V5Q, T61A, P193R, S232G
B6: YU112-D08 (antibody)
chain: B3 chain with T61A, K65E
B7: YU100-A12 (antibody)
chain: B3 chain with T61A, Q137L, S138P, A139V, I162S, T190S, N207D, G223D, E242K
B8: YU100-B01 (antibody)
chain: QVQLVQSGGGVVQPGRSLRLSCAASGFTFSSYGMHWVRQAPGKGLEWVAVISYDGSNKYYADSVKGRFTISRDNSKNTLYLQMNSLRAEDTAVYYCAKIGATDPLDYWGQGTLVTVSSGSASAPKLEEGEFSEARVQSALTQPRSVSGSPGQSVTISCTGTNTDVGAYNYVSWYQQYPGKAPKLIIYDVSKRPSGVPDRFSGSKSGNTASLTISGLQAEDEADYYCCSYAGSYSWVFGGGTKLTVL
B9: YU112-H02 (antibody)
chain: QVQLVESGGGVVQPGRSLRLSCAASGFTFSSYGMHWVRQAPGKGLEWVAVISYDGSNKYYADSVKGRFTISRDNSKNTLYLQMNSLRAEDTAVYYCAKLSGPNGVDYWGQGTLVTVSSGSASAPKLEEGEFSEARVQPVLTQPRSVSGSPGQSVTISCTGTSSDVGGYNYVSWYQQHPGKAPKVMIYDVSKRPSGVPDRFSGSKSGNTASLTISGLQAEDEADYYCCSYAGSYTWVFGGGTKLTVL
B10: YU112-F05 (antibody)
chain: EVQLVQSGGGVVQPGRSLRLSCAASGFTFGSYGMHWVRQAPGKGLEWVAVISYDGSNKYYADSVKGRFTISRDNSKNTLYLQMNSLRAEDTAVYYCAKIGATDPLDYWGQGTLVTVSSGSASAPKLEEGEFSEARVQSALTQPRSVSGSPGQSVTISCTGTSSDVGGYNYVSWYQQHPGKAPKLIIYDVNNRPSGVSNRFSASKSGNTASLTISGLQAEDEADYYCNSYTSGSTWVFGGGTKLTVL
B11: YU112-C05 (antibody)
chain: EVQLVESGGGVVQPGRSLRLSCAASGFTFSSYAMHWVRQAPGKGLEWVAVISYDGSNKYYADSVKGRFTISRDNSKNTLYLQMNSLRAEDTAVYYCARIMGYDYGDYDVVDYWGQGTLVTVSSGSASAPKLEEGEFSEARVQSALTQPRSVSGSPGQSVTISCTGTISDVGGYNYVSWYQQHPGKAPKLMIYDVTKRPSGVPDRFSGSKSGNTASLTISGLQAEDEAGYYCSSYAGSYTWVFGGGTELTVL
B12: YU112-B06 (antibody)
chain: QVQLVESGGGVVQPGRSLRLSCAASGFTFSSYGMHWVRQAPGKGLEWVAVISYDGSNKYYADSVKGRFTISRDNSKNTLYLQMNSLRAEDTAVYYCAKIGATDPLDYWGQGTLVTVSSGSASAPKLEEGEFSEARVQSALTQPASVSGSPGQSITISCTGTSSDVGGYNYVSWYQQHPGKAPKLMIYDVSNRPSGVSNRFSGSKSGNTASLTIFGLQAEDEADYYCSSYTSSSSWVFGGGTKLTVL
B13: YU100-B03 (antibody)
chain: QVQLVQSGGGVVQPGRSLRLSCAASGFTFSSYGMHWVRQAPGKGLEWVAVISYDGSNKYYADSVKGRFTISRDNSKNTLYLQMNSLRAEDTAVYYCAKIGATDPLDYWGQGTLVTVSSGSASAPKLEEGEFSEARVQSVLTQPRSVSGSPGRSVTISCTGTSSDVGGYNYVSWYQQHPGKAPKLTLYDVVKRPSGVPDRYSGSKSGNTASLTISGLQAEDEADYYCCSYAGGYTWVFGGGTKVTVV
B14: YU112-H01 (antibody)
chain: QVQLVESGGGVVQPGRSLRLSCAASGFTFGSYGMHWVRQAPGKGLEWVAVISYDGSNKYYADSVKGRFTISRDNSKNTLYLQMNSLRAEDTAVYYCAKGSYYFDYWGQGTLVTVSSGSASAPKLEEGEFSEARVETTLTQSPGTLSLSPGERATLSCRASQSVSSSYLAWYQQKPGQAPRLLIYGASSRATGIPDRFSGSGSGTDFTLTISSLQPDDFATYYCQQSYSTPTWTFGQGTKVEIK

Target: T1, Human IL-11
Assay: ELISA
Protocol: (§1) The soluble scFv were produced by recombinant expression in E. coli, and analysed for their ability to bind to human IL-11 and murine IL-11 by ELISA. Briefly, the respective antigen was coated to wells of an ELISA plate, the cell culture supernatant containing the respective scFv was added at a 1:2 dilution, and binding was detected.

hIL11 - average signal | Binder
0.443 | B1
0.566 | B2
0.438 | B3
0.333 | B4
0.664 | B5
0.418 | B6
0.32 | B7
0.187 | B8
0.606 | B9
0.863 | B10
0.458 | B11
0.756 | B12
0.227 | B13
1.23 | B14

Target: T2, Mouse IL-11
Assay: ELISA
Protocol: as §1

mIL11 - average signal | Binder
0.54 | B1
0.445 | B2
0.612 | B3
0.372 | B4
0.762 | B5
0.723 | B6
0.388 | B7
0.175 | B8
0.785 | B9
0.601 | B10
0.685 | B11
0.622 | B12
0.321 | B13
1.18 | B14

Target: T1, Human IL-11
Assay: cell-based or functional assay

MMP2 production, Experiment 1 (human atrial fibroblasts + TGFB1) [ng/mL] | MMP2 production, Experiment 2 (human atrial fibroblasts + TGFB1) [ng/mL] | Binder
52.1 | 50.1 | B1
57.6 | 53.3 | B2
50.7 | 45 | B3
51.6 | 45.7 | B4
55 | 47.8 | B5
50.3 | 42.5 | B6
59.5 | 50.4 | B7
52.5 | 40 | B8
65.3 | 58 | B9
53.9 | 48.5 | B10
55.2 | 50.1 | B11
49.7 | 43.9 | B12
47.3 | 46.8 | B13
51.9 | 47.7 | B14

Target: T1, Human IL-11
Assay: ELISA on coated recombinant human IL-11 (100 ng/well), scFv-Fc
Protocol: The light chain shuffled anti-IL-11 antibodies were analysed to determine the EC50 for binding to human IL-11 by ELISA according to standard methods. Briefly, wells of microtiter plates were coated with recombinant human IL-11 (100 ng/well), scFv-Fc comprising the VH and VL domains of the clones were added in a dilution series and antibody binding was detected using a polyclonal antibody detection system.

EC50 [µg/mL] | Binder
0.023 | B1
0.017 | B2
0.025 | B3
0.02 | B4
0.017 | B5
0.018 | B6
0.023 | B7
0.023 | B8
0.02 | B9
0.04 | B10
0.012 | B11
0.02 | B12
0.025 | B13
0.02 | B14
